As a reminder, the koff is a measure of how fast the partners let go of each other.

The source of these data is article PMC12407086.

For test [1], the target named is recombinant human desmoglein-1 (DSG-1), purified, full-length (human) (UniProt Q02413). As to the kind of experiment: single-molecule force spectroscopy (AFM); AFM tips functionalized with DSG-1 against living S. aureus AD08.
The target is the same in test [2]. Nature of the test: single-molecule force spectroscopy (AFM); DSG-1 tips against L. lactis SdrD^(+) after EDTA, with CaCl2 added to 10 mM (15 min incubation).
The target is the same in test [3]. Nature of the test: single-molecule force spectroscopy (AFM); AFM tips functionalized with DSG-1 against living L. lactis SdrD^(+) on a polystyrene dish; PBS, room temperature; approach and retraction 1 μm s^−1, applied force 250 pN, dwell time 0 s.
For test [4] the target is unchanged. Nature of the test: dynamic force spectroscopy (AFM, SMFS); DSG-1 tips against L. lactis SdrD^(+); retraction speed 0.5, 1, 3, 5 and 10 μm s^−1; Bell-Evans fit; only adhesion forces of >1000 pN considered.
Test [5] addresses pPROX^∗ peptide (cysteine-bearing peptide based on the p_(PROX) sequence of DSG-1) (human). As to the kind of experiment: single-molecule force spectroscopy (AFM); AFM tips carrying pPROX^∗ by a PEG27-maleimide linker against living L. lactis SdrD^(+); pulling speed 1 μm s^−1.
The target in test [6] is recombinant human desmoglein-1 (DSG-1), purified, full-length (human) (UniProt Q02413). As to the kind of experiment: single-molecule force spectroscopy (AFM); DSG-1 tips against L. lactis SdrD^(+) in the presence of 1 mM EDTA (15 min incubation).

Sequence of pPROX^∗ peptide (cysteine-bearing peptide based on the p_(PROX) sequence of DSG-1) (human) (Q02413 other isoform, or with tags, fused parts or gaps): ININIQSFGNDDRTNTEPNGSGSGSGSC

As for “SdrD on the surface of Staphylococcus aureus AD08 (clinical isolate from an infected skin lesion of a patient with AD) (from UniProt Q2G0L4 36-1315) (natural protein)”, the rupture force (main peak) in test [1] was determined as 1550 pN.
With “serine-aspartate repeat protein D (SdrD) expressed on the surface of Lactococcus lactis MG1363 (pKS80::sdrD) (from UniProt Q2G0L4 36-1315) (natural protein)”, in test [2], the adhesion force with 10 mM Ca^2+ stood at 2600 pN. Moreover, in test [3], the adhesion (rupture) force worked out at 2080 pN and the binding probability was 49%. Besides, in test [4], the koff amounted to 1.4e-07 s⁻¹. For the same substance, in test [5], the adhesion frequency came to 33% and the rupture force was determined as 1810 pN. Also, the adhesion force with 1 mM EDTA in test [6] was determined as 2160 pN.
